Target: recombinant human PGRN (human) (UniProt P28799)
Sequence of UniProt P28799 (P28799 18-593): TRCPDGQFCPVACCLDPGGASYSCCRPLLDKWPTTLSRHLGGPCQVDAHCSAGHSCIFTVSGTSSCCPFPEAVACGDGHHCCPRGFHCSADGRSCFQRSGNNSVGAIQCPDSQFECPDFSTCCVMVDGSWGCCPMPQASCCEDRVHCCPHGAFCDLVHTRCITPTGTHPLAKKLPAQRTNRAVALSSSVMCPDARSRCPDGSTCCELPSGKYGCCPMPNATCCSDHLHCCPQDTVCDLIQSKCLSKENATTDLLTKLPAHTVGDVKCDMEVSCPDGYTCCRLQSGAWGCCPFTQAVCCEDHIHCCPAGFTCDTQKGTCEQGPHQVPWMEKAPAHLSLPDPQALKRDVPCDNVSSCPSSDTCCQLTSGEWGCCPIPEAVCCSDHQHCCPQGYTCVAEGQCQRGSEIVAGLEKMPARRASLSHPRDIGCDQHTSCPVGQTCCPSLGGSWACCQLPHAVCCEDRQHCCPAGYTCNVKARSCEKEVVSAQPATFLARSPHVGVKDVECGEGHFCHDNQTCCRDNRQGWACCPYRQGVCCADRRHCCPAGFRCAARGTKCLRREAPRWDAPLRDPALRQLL

- inhibition of TNF-induced NF-κB luciferase reporter activity in transfected human embryonic kidney cells by combined stimulation with YB-1 and PGRN: 65%
Substance: recombinant human Flag-YB-1 (from UniProt P67809 1-324) (natural protein)

Reference: article PMC7583764
